Test in all cases: cell-based or functional assay
The target in test [1] is C-terminal HA-tagged feline APOBEC3 (feline).
Test [2] deals with feline APOBEC3 (feline).
Test [3] concerns the target different primate APOBEC3 proteins (e.g. from chimpanzee, African green monkey, human).

Chain of C-terminal HA-tagged feline APOBEC3 (feline) (Q4VDN5 whole entry): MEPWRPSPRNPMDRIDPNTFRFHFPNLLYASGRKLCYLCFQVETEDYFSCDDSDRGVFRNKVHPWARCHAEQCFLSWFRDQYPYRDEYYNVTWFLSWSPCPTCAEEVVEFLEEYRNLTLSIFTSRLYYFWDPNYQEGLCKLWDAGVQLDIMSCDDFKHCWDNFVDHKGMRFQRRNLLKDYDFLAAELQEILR

Molecule “FFV Bet truncated after amino acid 116 (mutant pFeFV-BBtr)” yielded a G→A exchanges per 100 nucleotides in FFV genomes with fe3 coexpressed (G→A exchanges per 100 nucleotides) in test [1] of 1.05.

The molecule “feline foamy virus (FFV) Bet protein (from UniProt Q8NFT8)” returned a reduction of FFV titer (FeFAB reporter cells) on cotransfection of pfe3 in test [2] of under 10 fold. Besides, the G→A exchanges per 100 nucleotides in FFV genomes with fe3 coexpressed (G→A exchanges per 100 nucleotides) in test [1] is 0.05.

B1: human foamy virus (HFV) Bet protein, P89873 1-482 (protein)
chain: MDSYEKEESVASTSGIQDLQTLSELVGPENAGEGELTIAEEPEENPRRPRRYTKREVKCVSYHAYKEIEDKHPQHIKLQDWIPTPEEMIAQKVQNQDLGTILSFDVTCLKSITSLGRNDPGDDPSIMSHVLPVVTPWPMSQDHYAPTLFGILDRYYQGYLKSPATYQTWKFTCQVDPSGKRFMETQFWVPPLGQVNIQFYKNYQILTCCQAVDPFANIFHGTDEEMFDIDSGPDVWCSPSLCFKVIYEGAMGQKQEQKTWLCRLGHGHRMGACDYRKVDLYAMRQGKENPYGDRGDAALQYAYQVKRGCKAGCLASPVLNYKALQFHRTIMADFTNPRIGEGHLAHGYQAAMEAYGPQRGSNEERVWWNVTRNQGKQGGEYYREGGEEPHYPNTPAPHRRTWDERHKVLKLSSFATPSDIQRWTTKALPYGWKVVTESGNDYTSRRKIRTLTEMTQDEIRKRWESGYCDPFIDSGSDSDGPF
Turning to B1, the Bet-mediated rescue of marker gene transduction in the presence of different APOBEC3 molecules in test [3] is under 100 fold.

For the origin of these results see US20110294219A1.
